13 substances from patent US20240132578A1 can be followed below.

A value given as a limit tells only on which side of the number the result lay.

Common to all, as to assay: cell-based or functional assay
Experiment [1] deals with HIV-1 APV-13 envelope (Env) on pseudovirus (HIV-1).
The target of experiment [2] is HIV-1 envelope glycoprotein (Env) of isolate MGRM-C-004 (HIV-1).
The target in experiment [3] is HIV-1 Env of pseudovirus MGRM-G-025 (HIV-1).
Experiment [4] has as its target HIV-1 Env of isolate MGRM-D-004 (clade D pseudovirus) (HIV-1).
The target in experiment [5] is HIV-1 CMU02 envelope (Env) on pseudovirus (HIV-1).
For experiment [6], the target named is HIV-1 92RW021 envelope glycoprotein (Env) on pseudovirus (HIV-1 (clade A)).
In experiment [7] the target is envelope of aMLV pseudovirus (negative control).
Experiment [8] has as its target HIV-1 Env of isolate MGRM-D-028 (clade D pseudovirus) (HIV-1).
The target of experiment [9] is HIV-1 Env of isolate VLGCB3, clade B (HIV-1).
Experiment [10] deals with HIV-1 Env of isolate MGRM-D-012 (clade D pseudovirus) (HIV-1).
The target in experiment [11] is HIV-1 Env of pseudovirus MGRM-F1-014 (HIV-1).
Experiment [12] concerns the target HIV-1 Env of pseudovirus MGRM-F1-010 (HIV-1).
The target of experiment [13] is HIV-1 envelope glycoprotein (Env) of isolate MG RM-AG-008 (HIV-1).
Experiment [14] addresses HIV-1 Env of pseudovirus MGRM-D-018 (HIV-1).
Experiment [15] concerns the target HIV-1 Env of isolate MGRM-D-008 (HIV-1).
In experiment [16] the target is HIV-1 Env of isolate 92UG046 (HIV-1).
Experiment [17] addresses HIV-1 Env of isolate 98CN006 (HIV-1).
Experiment [18] concerns the target HIV-1 Env of isolate MGRM-G-017 (subtype G) (HIV-1).
For experiment [19], the target named is HIV-1 Env of isolate MG RM-A-006 (pseudovirus) (HIV-1).
Experiment [20] has as its target HIV-1 Env of pseudovirus isolate APV-6 (clade B) (HIV-1).
The target of experiment [21] is HIV-1 Env of isolate MGRM-G-013 (subtype G) (HIV-1).
Experiment [22] has as its target HIV-1 Env of isolate MGRM-AE-001 (pseudovirus) (HIV-1).

Chain of PGT-143 (4980_N08) (antibody) (VH): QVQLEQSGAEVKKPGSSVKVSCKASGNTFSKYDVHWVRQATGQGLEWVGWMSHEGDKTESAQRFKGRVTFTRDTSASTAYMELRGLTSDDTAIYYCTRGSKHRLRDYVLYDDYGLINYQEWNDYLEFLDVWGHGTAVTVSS
Chain of PGT-143 (4980_N08) (antibody) (VL): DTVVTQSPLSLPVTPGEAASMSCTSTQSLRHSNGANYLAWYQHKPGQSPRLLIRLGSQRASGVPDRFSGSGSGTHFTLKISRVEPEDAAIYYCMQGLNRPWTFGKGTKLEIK
Chain of PGT-142 (4995_E20) (antibody) (VH): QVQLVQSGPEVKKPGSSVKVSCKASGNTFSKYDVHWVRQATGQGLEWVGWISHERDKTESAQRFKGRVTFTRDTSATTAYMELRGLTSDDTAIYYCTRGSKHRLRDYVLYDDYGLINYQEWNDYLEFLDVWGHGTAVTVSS
Chain of PGT-142 (4995_E20) (antibody) (VL): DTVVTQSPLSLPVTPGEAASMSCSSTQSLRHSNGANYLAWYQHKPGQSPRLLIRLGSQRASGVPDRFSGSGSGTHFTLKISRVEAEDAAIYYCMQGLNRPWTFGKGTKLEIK
Chain of 1443_C16 (PG16) (TCN-116) (antibody) (VH): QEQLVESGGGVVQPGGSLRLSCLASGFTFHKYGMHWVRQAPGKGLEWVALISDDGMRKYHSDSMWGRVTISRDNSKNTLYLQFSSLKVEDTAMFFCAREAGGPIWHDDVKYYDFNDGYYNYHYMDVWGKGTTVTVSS
Chain of 1443_C16 (PG16) (TCN-116) (antibody) (VL): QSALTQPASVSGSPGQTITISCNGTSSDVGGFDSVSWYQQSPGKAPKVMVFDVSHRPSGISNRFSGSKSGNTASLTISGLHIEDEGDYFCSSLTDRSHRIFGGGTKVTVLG
Chain of PGT-144 (4970_K22) (antibody) (VH): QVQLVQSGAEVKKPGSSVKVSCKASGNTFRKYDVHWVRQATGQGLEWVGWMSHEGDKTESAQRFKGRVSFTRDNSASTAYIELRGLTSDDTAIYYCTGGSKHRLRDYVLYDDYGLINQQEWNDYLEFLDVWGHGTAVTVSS
Chain of PGT-144 (4970_K22) (antibody) (VL): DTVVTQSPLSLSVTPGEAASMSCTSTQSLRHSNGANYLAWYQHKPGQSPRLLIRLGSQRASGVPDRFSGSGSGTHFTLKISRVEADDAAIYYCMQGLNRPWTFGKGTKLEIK
Chain of PGT-141 (4964_G22; 4993_K13) (antibody) (VH): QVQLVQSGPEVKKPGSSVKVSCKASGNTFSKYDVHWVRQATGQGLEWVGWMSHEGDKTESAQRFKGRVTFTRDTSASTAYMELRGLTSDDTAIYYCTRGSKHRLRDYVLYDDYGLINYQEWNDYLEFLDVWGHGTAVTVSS
Chain of PGT-145 (4995_P16) (antibody) (VH): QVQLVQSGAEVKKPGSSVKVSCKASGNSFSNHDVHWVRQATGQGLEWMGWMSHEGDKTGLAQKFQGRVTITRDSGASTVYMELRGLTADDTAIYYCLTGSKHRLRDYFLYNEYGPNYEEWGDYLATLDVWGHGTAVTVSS
Chain of PGT-145 (4995_P16) (antibody) (VL): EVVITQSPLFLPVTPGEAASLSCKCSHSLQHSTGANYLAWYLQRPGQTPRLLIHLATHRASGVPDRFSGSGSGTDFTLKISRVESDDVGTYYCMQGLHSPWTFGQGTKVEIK

As to b12 (antibody), the neutralization IC50 in experiment [1] was more than 25 µg/mL; in experiment [5] it was 4.25 µg/mL. Further, the IC50 (µg/ml), pseudovirus neutralization was 5.46 µg/mL in experiment [2], more than 50 µg/mL in experiment [3], more than 50 µg/mL in experiment [6] and 0.15 µg/mL in experiment [9]. Moreover, the IC50, pseudovirus neutralization in experiment [4] was more than 50 µg/mL; in experiment [8], 0.78 µg/mL; in experiment [10], 0.13 µg/mL. Also, the IC50 (commonly the concentration at which inhibition is half-maximal) in experiment [7] was more than 50 µg/mL.

On to 1443_C16 (PG16) (TCN-116) (antibody), for which the neutralization IC50 in [1] and in experiment [5] was more than 50 µg/mL in each case. Further, the IC50 (µg/ml), pseudovirus neutralization in [2] is 5.09 µg/mL; in experiment [3] it was more than 50 µg/mL; in [6] it was 0.11 µg/mL; in [9] it was 0.4 µg/mL. Besides, the figures for the IC50, pseudovirus neutralization in experiment [4], in experiment [8] and in experiment [10] were 0.01 µg/mL, more than 50 µg/mL and 0.35 µg/mL, respectively. The same substance yielded a 50% inhibitory concentration (IC50) in experiment [7] of more than 50 µg/mL.

4E10 (antibody): the results for the neutralization IC50 in experiment [1] and in experiment [5] were 3.8 µg/mL and 0.59 µg/mL, respectively. The IC50 (µg/ml), pseudovirus neutralization in experiment [2] is 24.2 µg/mL; in experiment [3], 1.7 µg/mL; in experiment [6], 4.87 µg/mL; in experiment [9] it was 5.76 µg/mL. Further, the IC50, pseudovirus neutralization in experiment [4] came to 1.58 µg/mL; in [8] it was 1.28 µg/mL; in experiment [10], 1.13 µg/mL. Also, in [7], the IC50 is more than 50 µg/mL.

As to 2F5 (antibody), the neutralization IC50 in experiment [1] came out at 2.8 µg/mL; in [5], 0.38 µg/mL. Further, the IC50 (µg/ml), pseudovirus neutralization in experiment [2] was more than 50 µg/mL; in experiment [3], more than 50 µg/mL; in experiment [6] it was 4.16 µg/mL; in experiment [9], more than 50 µg/mL. Further, the figures for the IC50, pseudovirus neutralization in experiment [4], in experiment [8] and in experiment [10] were 2.3 µg/mL, more than 50 µg/mL and 1.7 µg/mL, respectively. The substance further gave an IC50 in experiment [7] of more than 50 µg/mL.

For the substance 1495_C14 (PGC14) (antibody), the neutralization IC50 in [1] and in [5] was more than 50 µg/mL each time. Besides, the IC50 (µg/ml), pseudovirus neutralization was more than 50 µg/mL in experiment [2], more than 50 µg/mL in experiment [3], more than 50 µg/mL in experiment [6] and 21 µg/mL in [9]. The IC50, pseudovirus neutralization in experiment [4], in [8] and in experiment [10] was more than 50 µg/mL throughout. The substance also registered an IC50 in experiment [7] of more than 50 µg/mL.

Turning to PGT-141 (4964_G22; 4993_K13) (antibody), the IC50, pseudovirus neutralization was 1 ng/mL in experiment [11], more than 50 µg/mL in experiment [12] and more than 50 µg/mL in [14]. Further, the IC50 in experiment [13] is 19.2 µg/mL.

With VRC01 (antibody), the IC50, pseudovirus neutralization is 56 ng/mL in experiment [11], 0.097 µg/mL in [12], more than 50 µg/mL in experiment [14] and 1.81 µg/mL in experiment [20]. The IC50 (µg/mL), pseudovirus neutralization stood at 0.854 µg/mL in experiment [15]; 12.7 µg/mL in experiment [16]; 0.644 µg/mL in [17]; 0.124 µg/mL in experiment [18]; 0.553 µg/mL in experiment [21]. Moreover, in experiment [13], the IC50 was determined as 0.124 µg/mL. Also, the IC50 (µg/mL), single-round pseudovirus neutralization in experiment [19] was 0.521 µg/mL; in experiment [22], 0.167 µg/mL.

On to 2G12 (antibody), for which the neutralization IC50 in experiment [1] was 23.9 µg/mL; in experiment [5] it was more than 50 µg/mL. Besides, the IC50 (µg/ml), pseudovirus neutralization is more than 50 µg/mL in experiment [2], 31.9 µg/mL in [3], more than 50 µg/mL in experiment [6] and 7.9 µg/mL in experiment [9]. For the same substance, the IC50, pseudovirus neutralization in experiment [4], in experiment [8] and in experiment [10] was more than 50 µg/mL in each case. This substance yielded an IC50 in [7] of more than 50 µg/mL.

PGT-144 (4970_K22) (antibody): the IC50, pseudovirus neutralization is 14 ng/mL in experiment [11], more than 50 µg/mL in [12] and more than 50 µg/mL in experiment [14]. In [13], this substance returned an IC50 of more than 50 µg/mL.

In the case of PGT-142 (4995_E20) (antibody), the IC50, pseudovirus neutralization was 1 ng/mL in [11], more than 50 µg/mL in experiment [12] and more than 50 µg/mL in experiment [14]. Besides, the IC50 in [13] is 12.1 µg/mL.

Take 4993_K13 (PGT-141) (antibody): the IC50 (µg/mL), pseudovirus neutralization was 0.371 µg/mL in experiment [15]; more than 50 µg/mL in experiment [16]; more than 50 µg/mL in [17]; 0.164 µg/mL in experiment [18]; more than 50 µg/mL in experiment [21]. For the same substance, the IC50 (µg/mL), single-round pseudovirus neutralization in experiment [19] and in [22] was more than 50 µg/mL each time. In addition, the IC50, pseudovirus neutralization in experiment [20] came to 14.2 µg/mL.

As for PGT-143 (4980_N08) (antibody), the IC50, pseudovirus neutralization in [11] was 1 ng/mL; in experiment [12] it was more than 50 µg/mL; in [14] it was more than 50 µg/mL. Further, the half-inhibitory concentration (IC50) in experiment [13] was determined as 34 µg/mL.

Regarding PGT-145 (4995_P16) (antibody), the IC50, pseudovirus neutralization in experiment [11] is 9 ng/mL; in experiment [12] it was 3.32 µg/mL; in experiment [14], 0.065 µg/mL. Besides, the IC50 in [13] worked out at 0.244 µg/mL.
